Laboratory results taken from patent publication US12679878B2, “CRF2 receptor agonists and their use in therapy” (SANOFI, priority 2020, dated 2026).
Starred links: 1 amine or outer side, 2 acyl side, 3 side chain; linkers in the order of their positions; H or OH if unused. Non-standard residues stand in square brackets, D forms with d. Groups on a side chain read outwards from the residue. No end group written: not given here. *: point of attachment. C18 diacid = O=C(O)CCCCCCCCCCCCCCCCC(=O)*; γGlu = O=C(O)[C@H](CCC(=O)[*:2])N[*:1]; AEEA = NCCOCCOCC(=O)O; Aib = CC(C)(N)C(=O)O

T1: anti-target CRF1R receptor (UniProt P34998 24-415, limits assumed)
T1 sequence (looked up): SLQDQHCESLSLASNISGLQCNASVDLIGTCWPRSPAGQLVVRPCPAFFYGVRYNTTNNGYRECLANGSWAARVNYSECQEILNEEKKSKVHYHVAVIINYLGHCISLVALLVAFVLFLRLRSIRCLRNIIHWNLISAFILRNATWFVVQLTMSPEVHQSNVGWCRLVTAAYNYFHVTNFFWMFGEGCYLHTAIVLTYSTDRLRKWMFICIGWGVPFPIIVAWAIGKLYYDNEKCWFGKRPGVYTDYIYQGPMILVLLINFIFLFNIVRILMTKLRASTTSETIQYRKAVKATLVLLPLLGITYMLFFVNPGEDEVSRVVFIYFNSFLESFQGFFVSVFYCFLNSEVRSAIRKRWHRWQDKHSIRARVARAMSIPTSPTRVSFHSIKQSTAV

B1: peptide of SEQ ID NO: 69 (peptide)
peptide: IVLSLDVPIKLK([AEEA-AEEA-γGlu-C18 diacid])K[Aib]LLEQERQKKQREQAETNKQILAQV-NH2
modifications: N-terminus assumed
SMILES: CC[C@H](C)[C@H](N)C(=O)N[C@H](C(=O)N[C@@H](CC(C)C)C(=O)N[C@@H](CO)C(=O)N[C@@H](CC(C)C)C(=O)N[C@@H](CC(=O)O)C(=O)N[C@H](C(=O)N1CCC[C@H]1C(=O)N[C@H](C(=O)N[C@@H](CCCCN)C(=O)N[C@@H](CC(C)C)C(=O)N[C@@H](CCCCNC(=O)COCCOCCNC(=O)COCCOCCNC(=O)CC[C@H](NC(=O)CCCCCCCCCCCCCCCCC(=O)O)C(=O)O)C(=O)N[C@@H](CCCCN)C(=O)NC(C)(C)C(=O)N[C@@H](CC(C)C)C(=O)N[C@@H](CC(C)C)C(=O)N[C@@H](CCC(=O)O)C(=O)N[C@@H](CCC(N)=O)C(=O)N[C@@H](CCC(=O)O)C(=O)N[C@@H](CCCNC(=N)N)C(=O)N[C@@H](CCC(N)=O)C(=O)N[C@@H](CCCCN)C(=O)N[C@@H](CCCCN)C(=O)N[C@@H](CCC(N)=O)C(=O)N[C@@H](CCCNC(=N)N)C(=O)N[C@@H](CCC(=O)O)C(=O)N[C@@H](CCC(N)=O)C(=O)N[C@@H](C)C(=O)N[C@@H](CCC(=O)O)C(=O)N[C@H](C(=O)N[C@@H](CC(N)=O)C(=O)N[C@@H](CCCCN)C(=O)N[C@@H](CCC(N)=O)C(=O)N[C@H](C(=O)N[C@@H](CC(C)C)C(=O)N[C@@H](C)C(=O)N[C@@H](CCC(N)=O)C(=O)N[C@H](C(N)=O)C(C)C)[C@@H](C)CC)[C@@H](C)O)[C@@H](C)CC)C(C)C)C(C)C
B2: peptide of SEQ ID NO: 72 (peptide)
peptide: IVLSLDVPIKLK([AEEA-AEEA-γGlu-C18 diacid])QILLEQERQKKQRQQAETN[Aib]QILAQV-NH2
modifications: N-terminus assumed
SMILES: CC[C@H](C)[C@H](N)C(=O)N[C@H](C(=O)N[C@@H](CC(C)C)C(=O)N[C@@H](CO)C(=O)N[C@@H](CC(C)C)C(=O)N[C@@H](CC(=O)O)C(=O)N[C@H](C(=O)N1CCC[C@H]1C(=O)N[C@H](C(=O)N[C@@H](CCCCN)C(=O)N[C@@H](CC(C)C)C(=O)N[C@@H](CCCCNC(=O)COCCOCCNC(=O)COCCOCCNC(=O)CC[C@H](NC(=O)CCCCCCCCCCCCCCCCC(=O)O)C(=O)O)C(=O)N[C@@H](CCC(N)=O)C(=O)N[C@H](C(=O)N[C@@H](CC(C)C)C(=O)N[C@@H](CC(C)C)C(=O)N[C@@H](CCC(=O)O)C(=O)N[C@@H](CCC(N)=O)C(=O)N[C@@H](CCC(=O)O)C(=O)N[C@@H](CCCNC(=N)N)C(=O)N[C@@H](CCC(N)=O)C(=O)N[C@@H](CCCCN)C(=O)N[C@@H](CCCCN)C(=O)N[C@@H](CCC(N)=O)C(=O)N[C@@H](CCCNC(=N)N)C(=O)N[C@@H](CCC(N)=O)C(=O)N[C@@H](CCC(N)=O)C(=O)N[C@@H](C)C(=O)N[C@@H](CCC(=O)O)C(=O)N[C@H](C(=O)N[C@@H](CC(N)=O)C(=O)NC(C)(C)C(=O)N[C@@H](CCC(N)=O)C(=O)N[C@H](C(=O)N[C@@H](CC(C)C)C(=O)N[C@@H](C)C(=O)N[C@@H](CCC(N)=O)C(=O)N[C@H](C(N)=O)C(C)C)[C@@H](C)CC)[C@@H](C)O)[C@@H](C)CC)[C@@H](C)CC)C(C)C)C(C)C
B3: peptide of SEQ ID NO: 75 (peptide)
peptide: IVLSLDVPIKLK([AEEA-AEEA-γGlu-C18 diacid])QILLKQERQKKQRQQAETN[Aib]QILAQV-NH2
modifications: N-terminus assumed
SMILES: CC[C@H](C)[C@H](N)C(=O)N[C@H](C(=O)N[C@@H](CC(C)C)C(=O)N[C@@H](CO)C(=O)N[C@@H](CC(C)C)C(=O)N[C@@H](CC(=O)O)C(=O)N[C@H](C(=O)N1CCC[C@H]1C(=O)N[C@H](C(=O)N[C@@H](CCCCN)C(=O)N[C@@H](CC(C)C)C(=O)N[C@@H](CCCCNC(=O)COCCOCCNC(=O)COCCOCCNC(=O)CC[C@H](NC(=O)CCCCCCCCCCCCCCCCC(=O)O)C(=O)O)C(=O)N[C@@H](CCC(N)=O)C(=O)N[C@H](C(=O)N[C@@H](CC(C)C)C(=O)N[C@@H](CC(C)C)C(=O)N[C@@H](CCCCN)C(=O)N[C@@H](CCC(N)=O)C(=O)N[C@@H](CCC(=O)O)C(=O)N[C@@H](CCCNC(=N)N)C(=O)N[C@@H](CCC(N)=O)C(=O)N[C@@H](CCCCN)C(=O)N[C@@H](CCCCN)C(=O)N[C@@H](CCC(N)=O)C(=O)N[C@@H](CCCNC(=N)N)C(=O)N[C@@H](CCC(N)=O)C(=O)N[C@@H](CCC(N)=O)C(=O)N[C@@H](C)C(=O)N[C@@H](CCC(=O)O)C(=O)N[C@H](C(=O)N[C@@H](CC(N)=O)C(=O)NC(C)(C)C(=O)N[C@@H](CCC(N)=O)C(=O)N[C@H](C(=O)N[C@@H](CC(C)C)C(=O)N[C@@H](C)C(=O)N[C@@H](CCC(N)=O)C(=O)N[C@H](C(N)=O)C(C)C)[C@@H](C)CC)[C@@H](C)O)[C@@H](C)CC)[C@@H](C)CC)C(C)C)C(C)C
B4: peptide of SEQ ID NO: 77 (peptide)
peptide: IVLSLDVPIKLK([AEEA-AEEA-γGlu-C18 diacid])QILLKQERQKKQRQKAETNKQILAQV-NH2
modifications: N-terminus assumed
SMILES: CC[C@H](C)[C@H](N)C(=O)N[C@H](C(=O)N[C@@H](CC(C)C)C(=O)N[C@@H](CO)C(=O)N[C@@H](CC(C)C)C(=O)N[C@@H](CC(=O)O)C(=O)N[C@H](C(=O)N1CCC[C@H]1C(=O)N[C@H](C(=O)N[C@@H](CCCCN)C(=O)N[C@@H](CC(C)C)C(=O)N[C@@H](CCCCNC(=O)COCCOCCNC(=O)COCCOCCNC(=O)CC[C@H](NC(=O)CCCCCCCCCCCCCCCCC(=O)O)C(=O)O)C(=O)N[C@@H](CCC(N)=O)C(=O)N[C@H](C(=O)N[C@@H](CC(C)C)C(=O)N[C@@H](CC(C)C)C(=O)N[C@@H](CCCCN)C(=O)N[C@@H](CCC(N)=O)C(=O)N[C@@H](CCC(=O)O)C(=O)N[C@@H](CCCNC(=N)N)C(=O)N[C@@H](CCC(N)=O)C(=O)N[C@@H](CCCCN)C(=O)N[C@@H](CCCCN)C(=O)N[C@@H](CCC(N)=O)C(=O)N[C@@H](CCCNC(=N)N)C(=O)N[C@@H](CCC(N)=O)C(=O)N[C@@H](CCCCN)C(=O)N[C@@H](C)C(=O)N[C@@H](CCC(=O)O)C(=O)N[C@H](C(=O)N[C@@H](CC(N)=O)C(=O)N[C@@H](CCCCN)C(=O)N[C@@H](CCC(N)=O)C(=O)N[C@H](C(=O)N[C@@H](CC(C)C)C(=O)N[C@@H](C)C(=O)N[C@@H](CCC(N)=O)C(=O)N[C@H](C(N)=O)C(C)C)[C@@H](C)CC)[C@@H](C)O)[C@@H](C)CC)[C@@H](C)CC)C(C)C)C(C)C
B5: peptide of SEQ ID NO: 70 (peptide)
peptide: IVLSLDVPIKLK([AEEA-AEEA-γGlu-C18 diacid])QILLEQERQKKQREQAETN[Aib]QILAQV-NH2
modifications: N-terminus assumed
SMILES: CC[C@H](C)[C@H](N)C(=O)N[C@H](C(=O)N[C@@H](CC(C)C)C(=O)N[C@@H](CO)C(=O)N[C@@H](CC(C)C)C(=O)N[C@@H](CC(=O)O)C(=O)N[C@H](C(=O)N1CCC[C@H]1C(=O)N[C@H](C(=O)N[C@@H](CCCCN)C(=O)N[C@@H](CC(C)C)C(=O)N[C@@H](CCCCNC(=O)COCCOCCNC(=O)COCCOCCNC(=O)CC[C@H](NC(=O)CCCCCCCCCCCCCCCCC(=O)O)C(=O)O)C(=O)N[C@@H](CCC(N)=O)C(=O)N[C@H](C(=O)N[C@@H](CC(C)C)C(=O)N[C@@H](CC(C)C)C(=O)N[C@@H](CCC(=O)O)C(=O)N[C@@H](CCC(N)=O)C(=O)N[C@@H](CCC(=O)O)C(=O)N[C@@H](CCCNC(=N)N)C(=O)N[C@@H](CCC(N)=O)C(=O)N[C@@H](CCCCN)C(=O)N[C@@H](CCCCN)C(=O)N[C@@H](CCC(N)=O)C(=O)N[C@@H](CCCNC(=N)N)C(=O)N[C@@H](CCC(=O)O)C(=O)N[C@@H](CCC(N)=O)C(=O)N[C@@H](C)C(=O)N[C@@H](CCC(=O)O)C(=O)N[C@H](C(=O)N[C@@H](CC(N)=O)C(=O)NC(C)(C)C(=O)N[C@@H](CCC(N)=O)C(=O)N[C@H](C(=O)N[C@@H](CC(C)C)C(=O)N[C@@H](C)C(=O)N[C@@H](CCC(N)=O)C(=O)N[C@H](C(N)=O)C(C)C)[C@@H](C)CC)[C@@H](C)O)[C@@H](C)CC)[C@@H](C)CC)C(C)C)C(C)C

Legend:
rat CRF2R α receptor = rat CRF2R α receptor (rat, UniProt P47866 20-411); experiment: cell-based or functional assay
Sequence of rat CRF2R α receptor (P47866 20-411): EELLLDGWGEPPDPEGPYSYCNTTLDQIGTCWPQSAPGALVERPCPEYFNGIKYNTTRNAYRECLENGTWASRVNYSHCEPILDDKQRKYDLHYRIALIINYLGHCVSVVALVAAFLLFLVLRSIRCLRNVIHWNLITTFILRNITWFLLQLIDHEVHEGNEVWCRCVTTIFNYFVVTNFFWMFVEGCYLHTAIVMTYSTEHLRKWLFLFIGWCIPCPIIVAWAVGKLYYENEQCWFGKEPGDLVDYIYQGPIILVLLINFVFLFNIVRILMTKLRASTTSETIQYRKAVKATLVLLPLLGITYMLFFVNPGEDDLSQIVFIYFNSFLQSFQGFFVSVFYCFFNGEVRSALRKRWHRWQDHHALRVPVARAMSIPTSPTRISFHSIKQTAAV

[1] = target: T1, anti-target CRF1R receptor; experiment: cell-based or functional assay

| Binder | EC50 [nM], 0% HSA (cAMP, A7R5 cells) (rat CRF2R α receptor) | EC50[nM] 0% HSA (cAMP, CRF1R-overexpression CHO cells) [1] | Emax (%) (cAMP, CRF1R-overexpression CHO cells) [1] |
| --- | --- | --- | --- |
| B1 | 7.33 nM | > 1000 nM | 0.02% |
| B2 | 4.31 nM | > 1000 nM | 2.58% |
| B3 | 1.71 nM | > 1000 nM | 2.7% |
| B4 | 3.26 nM | > 1000 nM | 1.56% |
| B5 | 8.72 nM | > 1000 nM | 3.03% |
